Experimental data as given in IntAct's records for PubMed 29039417.

B1: Protein PTHB1 (Homo sapiens), Q3SYG4 (parent)
chain: MSLFKARDWWSTILGDKEEFDQGCLCLANVDNSGNGQDKIIVGSFMGYLRIFSPHPAKTGDGAQAEDLLLEVDLRDPVLQVEVGKFVSGTEMLHLAVLHSRKLCVYSVSGTLGNVEHGNQCQMKLMYEHNLQRTACNMTYGSFGGVKGRDLICIQSMDGMLMVFEQESYAFGRFLPGFLLPGPLAYSSRTDSFLTVSSCQQVESYKYQVLAFATDADKRQETEQQKLGSGKRLVVDWTLNIGEQALDICIVSFNQSASSVFVLGERNFFCLKDNGQIRFMKKLDWSPSCFLPYCSVSEGTINTLIGNHNNMLHIYQDVTLKWATQLPHIPVAVRVGCLHDLKGVIVTLSDDGHLQCSYLGTDPSLFQAPNVQSRELNYDELDVEMKELQKIIKDVNKSQGVWPMTEREDDLNVSVVVSPNFDSVSQATDVEVGTDLVPSVTVKVTLQNRVILQKAKLSVYVQPPLELTCDQFTFEFMTPDLTRTVSFSVYLKRSYTPSELEGNAVVSYSRPTDRNPDGIPRVIQCKFRLPLKLICLPGQPSKTASHKITIDTNKSPVSLLSLFPGFASQSDDDQVNVMGFHFLGGARITVLASKTSQRYRIQSEQFEDLWLITNELILRLQEYFEKQGVKDFACSFSGSIPLQEYFELIDHHFELRINGEKLEELLSERAVQFRAIQRRLLARFKDKTPAPLQHLDTLLDGTYKQVIALADAVEENQGNLFQSFTRLKSATHLVILLIALWQKLSADQVAILEAAFLPLQEDTQELGWEETVDAAISHLLKTCLSKSSKEQALNLNSQLNIPKDTSQLKKHITLLCDRLSKGGRLCLSTDAAAPQTMVMPGGCTTIPESDLEERSVEQDSTELFTNHRHLTAETPRPEVSPLQGVSE
partner: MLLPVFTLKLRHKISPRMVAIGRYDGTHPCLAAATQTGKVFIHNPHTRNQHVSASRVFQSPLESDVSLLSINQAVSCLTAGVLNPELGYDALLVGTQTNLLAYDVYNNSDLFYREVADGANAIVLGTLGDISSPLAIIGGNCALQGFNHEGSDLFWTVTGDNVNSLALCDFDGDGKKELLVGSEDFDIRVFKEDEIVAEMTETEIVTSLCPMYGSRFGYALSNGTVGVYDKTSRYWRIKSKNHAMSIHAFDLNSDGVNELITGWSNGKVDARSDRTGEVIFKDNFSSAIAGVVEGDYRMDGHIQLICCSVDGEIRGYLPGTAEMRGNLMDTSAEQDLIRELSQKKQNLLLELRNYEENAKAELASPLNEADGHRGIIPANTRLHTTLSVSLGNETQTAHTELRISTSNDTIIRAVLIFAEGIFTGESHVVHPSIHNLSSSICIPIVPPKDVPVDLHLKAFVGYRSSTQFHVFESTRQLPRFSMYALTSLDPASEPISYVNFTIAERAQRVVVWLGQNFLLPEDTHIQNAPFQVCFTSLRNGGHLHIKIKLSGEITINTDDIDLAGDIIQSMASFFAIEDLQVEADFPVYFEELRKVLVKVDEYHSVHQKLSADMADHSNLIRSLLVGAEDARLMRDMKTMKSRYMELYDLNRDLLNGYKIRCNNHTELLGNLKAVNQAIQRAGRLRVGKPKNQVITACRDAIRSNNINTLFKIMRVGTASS

Variants of: B1
Conditions: with bbs2_human BBS2, Q9BXC9

effect of a mutation on the interaction	Variant
with no effect	K704A
with no effect	K704E
with no effect	T702A
with no effect	N800E
with no effect	S880K
with no effect	H869E
with no effect	R679E
with no effect	I676K
with no effect	G842K
with no effect	L740K
with no effect	Q807K
disrupting interaction strength	G822R
with no effect	P840E
with no effect	I738K
with no effect	C816E
with no effect	C816K
with no effect	W768K
with no effect	K781E
with no effect	S787K
with no effect	D850K
with no effect	D850A

effect of a mutation on the interaction	Variant
with no effect	D830E
with no effect	A730K
with no effect	A730E
with no effect	L815E
with no effect	D773A
with no effect	T725E
with no effect	S797K
with no effect	S806E
with no effect	E790A
with no effect	R868E
with no effect	A774K
with no effect	L699E
with no effect	T731A
with no effect	T836E
disrupting interaction strength	L808E
with no effect	Q798E
with no effect	L819A
with no effect	V885K
disrupting interaction strength	H694S
with no effect	R726K
with no effect	I846A

effect of a mutation on the interaction	Variant
with no effect	F756E
with no effect	P691A
with no effect	P691K
with no effect	Q883A
disrupting interaction strength	Q791S
with no effect	S745K
with no effect	S745A
with no effect	R683K
with no effect	S828E
with no effect	Q858E
with no effect	P875K
with no effect	P875A
with no effect	S820E
with no effect	T844K
with no effect	R674K
with no effect	P802A
with no effect	K786E
with no effect	K786A
with no effect	A831E
disrupting interaction strength	G701E
with no effect	G767K

effect of a mutation on the interaction	Variant
with no effect	I707A
with no effect	V713A
with no effect	I735A
with no effect	D804K
with no effect	D804A
with no effect	L827K
disrupting interaction strength	W741G
disrupting interaction strength	W741A
with no effect	C843E
with no effect	C843K
with no effect	Q722E
disrupting interaction strength	Q722T
with no effect	A682E
with no effect	L727E
with no effect	L727K
with no effect	L766E
disrupting interaction strength	A675H
with no effect	A675K

Continued, variant first:

Variant	effect of a mutation on the interaction
T543A	with no effect
T543E	with no effect
L611E	with no effect
S596E	with no effect
T613K	with no effect
R598K	with no effect
E622A	with no effect
P516K	with no effect
L662A	with no effect
S509A	with no effect
D572K	with no effect
P537E	with no effect
L583E	with no effect
F632E	with no effect
T496E	with no effect
R600E	with no effect
R600K	with no effect
L436E	with no effect
L436K	with no effect
L436A	with no effect
L536K	with no effect
I548K	with no effect
Q621A	with no effect
T478A	with no effect
P564K	with no effect
Y599E	with no effect

Variant	effect of a mutation on the interaction
Y599A	with no effect
F580A	with no effect
F563K	with no effect
E647A	with no effect
E607K	with no effect
E654A	with no effect
K626A	with no effect
L648A	with no effect
F653E	with no effect
G579K	with no effect
G579E	with no effect
W610K	with no effect
W610E	with no effect
N503E	with no effect
C469K	with no effect
I588A	with no effect
E501K	with no effect
F474A	with no effect
F474E	with no effect
Y623K	with no effect
V415E	with no effect
Q426K	with no effect
L411E	with no effect
R521K	with no effect
L618E	with no effect
D573E	with no effect

Variant	effect of a mutation on the interaction
D608E	with no effect
L533A	with no effect
E431A	with no effect
E431K	with no effect
Q569A	with no effect
F421E	with no effect
L620E	with no effect
N576A	with no effect
N576K	with no effect
H581E	with no effect
T512K	with no effect
L531K	with no effect
I640A	with no effect
Y645A	with no effect
V432E	with no effect
T484A	with no effect
L609A	with no effect
S545K	with no effect
R619K	with no effect
A586K	with no effect
P520K	with no effect
D571A	with no effect
V430E	with no effect
L446E	with no effect
P511E	with no effect
V461A	with no effect

Variant	effect of a mutation on the interaction
Q471A	with no effect
L560E	with no effect
G538A	with no effect
V629E	with no effect
S558N	disrupting interaction strength
R514E	with no effect
V505K	with no effect
L500E	with no effect
R449K	with no effect
E475K	with no effect
V575K	with no effect
T549A	with no effect
R587A	with no effect
K630E	with no effect
A504E	with no effect
L457E	with no effect
G584E	with no effect
Q602E	with no effect
F527A	with no effect
L655K	with no effect
L655E	with no effect
E664K	with no effect
R493A	with no effect

Variants of: B1
Conditions: with bbs2_human BBS2, Q9BXC9
Remark: another data set of the same source

effect of a mutation on the interaction	Variant
with no effect	W741A
